The values below come from patent US20140010757A1 (Stanford University, published 2014).

No end group written: not given here.

Assay [1] addresses αvβ3 integrin on cells (U87MG glioblastoma cells; K562-αvβ3 cells) (UniProt P06756). The assay can be described thus: competing off binding of ^125I-echistatin (U87MG cells).
In assay [2] the target is T1, α5β1 integrin (detergent-solubilized) (UniProt P08648 42-1049; P05556 21-798).
T1 construct: Coated on microtiter plates; also called integrin α5β1
Description: competition with ^125I-echistatin on plate-coated detergent-solubilized integrin.

Assay [3] concerns the target T2, αvβ3 integrin on cells (U87MG glioblastoma cells; K562-αvβ3 cells) (UniProt P06756 31-1048; P05106 27-788).
T2 construct: whole, on cells; also called cell surface αvβ3 integrin
The assay can be described thus: competition with ^125I-echistatin on U87MG cells.

WT (synthesized Agouti peptide): the IC50 (commonly the concentration at which inhibition is half-maximal) in assay [1] was 1400 nM.
Turning to QCESGPCCRNCKFLKEGTICKRARGDDMDDYCNGKTCDCPRNPHKGPAT (ligand, ends and bridges not checked; cysteine pairing not given here) [echistatin (unlabeled)], the binding result in assay [2] was “binds”.

B1: ^64Cu-DOTA-7C AgRP engineered peptide (designed binder)
chain: GCVRLHESCLGQQVPCCDPAATCYCYGRGDNDLRCYCR
modifications: ends and bridges not checked; also: DOTA-64Cu label (site not given here)
notes: also called ^64Cu Labeled AgRP loop 4 RDG mutant (peptide 7C); labeled 7C
Take B1: the binding result in assay [3] is on record as “binds”.
